Results on 27 substances are retold here after patent US20210172932A1.

Broadly, the Kd is the concentration at which binding is half-saturated.

The target in assay [1] is human FcRn (FCGRT and beta2-microglobulin) on MDCK-hFcRn cells, clone 305-6 (human) (UniProt P55899). Description: cell-based or functional assay.
Assay [2] addresses human FcRn (immobilized on nickel-nitrilotriacetic acid-coated biosensors) (human) (UniProt P55899). Description: FcRn binding at pH 6.0 (BLI).
The target in assay [3] is human FcRn (FCGRT and beta2-microglobulin) on MDCK-hFcRn cells, clone 305-6 (human) (UniProt P55899). Description: flow cytometry on MDCK-hFcRn cells. In general terms: In flow cytometry, cells or beads pass a laser one at a time.
Assay [4] deals with human FcRn (immobilized on nickel-nitrilotriacetic acid-coated biosensors) (human) (UniProt P55899). Description: BLI (Octet RED), FcRn on Ni-NTA biosensor, pH 6.0. Background: In BLI a coated tip is dipped into the sample, and binding shifts an interference pattern.
Assay [5] has as its target human FcRn (FCGRT and beta2-microglobulin) on MDCK-hFcRn cells, clone 305-6 (human) (UniProt P55899). Description: flow cytometry, 100 µg/mL on MDCK-hFcRn cells, physiological pH, geometric MFI (No mAb: 94).
The target in assay [6] is human FcRn (immobilized on nickel-nitrilotriacetic acid-coated biosensors) (human) (UniProt P55899). Description: BLI, pH 6.0; range of the panel, lower end tied to Nivolumab by Table 1.

In assay [1], 2H7-DG (antibody) registered a Transcytosis (MDCK-hFcRN) of 4.3 ng/mL. Moreover, in assay [2], the Kd stood at 440 nM. In assay [3], this substance had a Binding to MDCK-hFcRN, MFI of 160 MFI.

2H7-Man5 (antibody) had a Transcytosis (MDCK-hFcRN) in assay [1] of 10.3 ng/mL. Besides, the Kd in assay [2] came out at 230 nM. The substance also came in with a Binding to MDCK-hFcRN, MFI in assay [3] of 207 MFI.

As to Adalimumab (antibody), in assay [4], the Kd came out at 1180 nM. In assay [1], this substance returned a Transcytosis of 4.7 ng/mL and a Transcytosis in MDCK-hFcRn cells of 4.7 ng/mL. Besides, the Binding to MDCK-FcRn cells, MFI in assay [5] was determined as 183 MFI.

With Alirocumab (antibody), the Transcytosis in assay [1] is 9.9 ng/mL.

Atezolizumab (antibody) had a Kd in assay [4] of 650 nM. Besides, the Transcytosis in assay [1] is 3 ng/mL.

Avelumab (antibody): the Kd in assay [4] came out at 1300 nM. The Transcytosis in assay [1] was found to be 7.3 ng/mL.

For the substance Basiliximab (antibody), in assay [4], the Kd came to 540 nM. In assay [1], the Transcytosis was 14.9 ng/mL and the Transcytosis in MDCK-hFcRn cells is 14.8 ng/mL. The same substance had a Binding to MDCK-FcRn cells, MFI in assay [5] of 203 MFI.

Substance Durvalumab (antibody) registered a dissociation constant Kd in assay [4] of 700 nM. Moreover, the Transcytosis in assay [1] was 6 ng/mL.

As for Efalizumab (antibody), the Transcytosis in assay [1] turned out to be 8.3 ng/mL.

In assay [1], Emicizumab (bispecific antibody) gave a Transcytosis of 3.6 ng/mL.

For the substance Evolocumab (antibody), the Transcytosis in assay [1] is 3.6 ng/mL.

For the substance Golimumab (antibody), the Transcytosis in assay [1] amounted to 6.8 ng/mL.

In turn, Ixekizumab (antibody) returned a Transcytosis in assay [1] of 5.1 ng/mL.

Regarding Natalizumab (antibody), the dissociation constant (Kd) in assay [4] was 280 nM. This substance also returned a Transcytosis in assay [1] of 4.9 ng/mL.

In the case of Nivolumab (antibody), the dissociation constant Kd in assay [4] and in assay [6] was 250 nM each time. This substance also showed a Transcytosis in assay [1] of 4.3 ng/mL.

In turn, Obinutuzumab (antibody) came in with a Transcytosis in assay [1] of 4.5 ng/mL.

As to Ocrelizumab (antibody), the Kd in assay [4] is 450 nM. Moreover, in assay [1], the Transcytosis was 4.8 ng/mL, the Transcytosis (MDCK-hFcRN) was found to be 4.8 ng/mL and the Transcytosis in MDCK-hFcRn cells is 4.8 ng/mL. Moreover, the Kd in assay [2] was determined as 450 nM. In assay [5], the Binding to MDCK-FcRn cells, MFI was 101 MFI. In assay [3], this substance returned a Binding to MDCK-hFcRN, MFI of 140 MFI.

Ofatumumab (antibody) gave a Transcytosis in assay [1] of 4.3 ng/mL.

Substance Olaratumab (antibody) yielded a Kd in assay [4] of 380 nM. The Transcytosis in assay [1] worked out at 8.2 ng/mL.

Regarding Palivizumab (antibody), the Kd in assay [4] is 480 nM. In assay [1], the Transcytosis worked out at 3.8 ng/mL.

In turn, Panitumumab (antibody) registered a Kd in assay [4] of 780 nM. The Transcytosis in assay [1] was 5 ng/mL.

Consider Pembrolizumab (antibody), for which the Transcytosis in assay [1] is 4.2 ng/mL.

Pertuzumab (antibody): in assay [4], the Kd came to 570 nM. Moreover, in assay [1], the Transcytosis was determined as 6.8 ng/mL and the Transcytosis in MDCK-hFcRn cells came to 6.8 ng/mL.

For the substance Reslizumab (antibody), the Kd in assay [4] was 450 nM. For the same substance, in assay [1], the Transcytosis turned out to be 3.3 ng/mL and the Transcytosis in MDCK-hFcRn cells was 3.3 ng/mL. The Binding to MDCK-FcRn cells, MFI in assay [5] stood at 93 MFI.

In turn, Rituximab (antibody) had a Kd in assay [4] of 460 nM. Also, in assay [1], the Transcytosis turned out to be 5.6 ng/mL.

With Tocilizumab (antibody), the Transcytosis in assay [1] was determined as 5.5 ng/mL.

As for Vedolizumab (antibody), the Transcytosis in assay [1] was found to be 4.1 ng/mL.
